Measurements from patent US20090311271A1.

Assays:
[1] = molecular target: purified recombinant human LOX1 comprised of the extracellular domain (ECD) of human LOX-1 (amino acids 61-273) with an N-terminal polyhistidine tag (human) (UniProt P78380); assay: AlphaScreen competition on His-LOX-1, unlabelled competitor titrated; labelled ligand biotin-CRP (1 ug/ml) with His-LOX-1 (1 ug/ml) by the panel list of paragraph 265; later sentences of paragraph 265 cite 2B and 2C the other way and the sheet prints no title
[2] = molecular target: human LOX-1 expressed on the cell surface (human) (UniProt P78380); assay: flow cytometry: DI-oxLDL (0-100 ug/ml) on CHO/LOX-1 cells, 60 min at 4 C, MFI
[3] = molecular target: human LOX-1 expressed on the cell surface (human) (UniProt P78380); assay: flow cytometry: DI-oxLDL (0-100 ug/ml) on CHO/LOX-1 cells, 60 min at 4 C; y axis MFI Signal
[4] = molecular target: human LOX-1 expressed on the cell surface (human) (UniProt P78380); assay: flow cytometry, DI-oxLDL on CHO/LOX-1 cells

IC50 (read off the curve) [1]: 0.2 µg/mL
Kd [2]: 22 µg/mL
Bmax [3]: 96.6
Kd [4]: 22 µg/mL
Substance: Human oxidized LDL
